Test results from patent US12173330B2, “Method for producing hydroxy-L-pipecolic acid” (API CORPORATION, priority 2015, dated 2024).

How the values were obtained:
O=C(O)[C@@H]1CCCCN1 = assay: purified protein, by the assay type
O=C(O)[C@@H]1CCCN1 = assay: purified protein, by the assay type; conditions: other: substrate: L-proline, 20 mmol/L 2-oxoglutaric acid, 30° C.
[1] = other: substrate: L-pipecolic acid, 20 mmol/L 2-oxoglutaric acid, 30° C.

Substance: Segniliparus rugosus ATCC BAA-974 L-pipecolic acid cis-5-hydroxylase SruPH, SEQ ID NO: 4 (Segniliparus rugosus ATCC BAA-974)
- Km (O=C(O)[C@@H]1CCCCN1; [1]): 1090 µM
- Km (O=C(O)[C@@H]1CCCN1): 400 µM

Substance: Colletotrichum gloeosporioides Nara qc5 L-pipecolic acid trans-4-hydroxylase CgPH, SEQ ID NO: 12 (Colletotrichum fructicola Nara gc5)
- Km (O=C(O)[C@@H]1CCCCN1; [1]): 8560 µM

Substance: Gibberella zeae PH-1 L-pipecolic acid trans-4-hydroxylase GzPH, SEQ ID NO: 16 (Fusarium graminearum PH-1)
- Km (O=C(O)[C@@H]1CCCCN1; 30.0 °C): 4720 µM
